± gives the uncertainty stated by the source.
Test: self-splicing fitness, log relative to wild type (ln ratio); higher = more splicing; Tetrahymena group I intron in knt gene, E. coli kanamycin selection, DiMSum; sequences stand for … in CUCUCU…GGAGGGAAAAGUUAUCAGGCAUGCACCUGGUAGCUAGUCUUUAAACCAAUAGAUUGCAUCGGUUUAAAAGGCAAGACCGUCAAAUUGCGGGAAAGGGGUCAACAGCCGUUCAGUACCAAGUCUCAGGGGAAACUUUGAGAUGGCCUUGCAAAGGGUAUGGUAAUAAGCUGACGGACAUGGUCCUAACCACGCAGCCAAGUCCUAAGUCAACAGAUCUUCUGUUGAUAUGGAUGCAGUUCACAGACUAAAUGUCGGUCGGGGAAGAUGUAUUCUUCUCAUAAGAUAUAGUCGGACCUCUCCUUAAUGGGAGCUAGCGGAUGAAGUGAUGCAACACUGGAGCCGCUGGGAACUAAUUUGUAUGCGAAAGUAUAUUGAUUAGUUUUGGAGUACUCGUGGUCG
Method in brief: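 A randomised library covering all eight P1ex-region intron nucleotides was built with the intron in the knt kanamycin-resistance gene on pET-22b(+) and held in E. coli BL21(DE3). Cells were grown overnight at 37°C or 30°C on LB agar, with or without 25 μg/mL kanamycin, plus 100 μg/mL carbenicillin, 50 μM IPTG and 0.2% rhamnose, and pooled colonies were amplicon-sequenced on an Illumina HiSeq 2500. DiMSum fitness is the error-weighted combination of wild-type-normalised replicate fold changes, kanamycin versus none.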

ACGUAGCAAUAUUACGAUGU
self-splicing fitness (ln) (30 °C): -2.37 ± 0.14 | self-splicing fitness (ln) (37 °C): -1.6 ± 0.17

UGUAAGCAAUAUUACGACGC
self-splicing fitness (ln) (30 °C): -2.61 ± 0.36 | self-splicing fitness (ln) (37 °C): -1.61 ± 0.3

UCCUAGCAAUAUUACGGUAA
self-splicing fitness (ln) (30 °C): -0.552 ± 0.12 | self-splicing fitness (ln) (37 °C): -0.427 ± 0.11

CAUAAGCAAUAUUACGACUG
self-splicing fitness (ln) (30 °C): -0.582 ± 0.072 | self-splicing fitness (ln) (37 °C): -0.476 ± 0.1

CACCAGCAAUAUUACGGUAA
self-splicing fitness (ln) (30 °C): -1.18 ± 0.056 | self-splicing fitness (ln) (37 °C): -0.566 ± 0.061

AGGGAGCAAUAUUACGUUGG
self-splicing fitness (ln) (30 °C): -4.08 ± 0.37 | self-splicing fitness (ln) (37 °C): -2.5 ± 0.33

CUAUAGCAAUAUUACGCCAU
self-splicing fitness (ln) (30 °C): -2.66 ± 0.39 | self-splicing fitness (ln) (37 °C): -2.45 ± 0.37

AUGGAGCAAUAUUACGUUAA
self-splicing fitness (ln) (30 °C): -2.58 ± 0.22 | self-splicing fitness (ln) (37 °C): -1.59 ± 0.23

CACCAGCAAUAUUACGAAAU
self-splicing fitness (ln) (30 °C): -4.11 ± 0.18 | self-splicing fitness (ln) (37 °C): -2.29 ± 0.16

UACCAGCAAUAUUACGAAAA
self-splicing fitness (ln) (30 °C): -1.43 ± 0.17 | self-splicing fitness (ln) (37 °C): -1.11 ± 0.13

CAGCAGCAAUAUUACGGCUG
self-splicing fitness (ln) (30 °C): -4.48 ± 0.25 | self-splicing fitness (ln) (37 °C): -1.82 ± 0.19

GCACAGCAAUAUUACGUGGA
self-splicing fitness (ln) (30 °C): -0.386 ± 0.064 | self-splicing fitness (ln) (37 °C): -0.281 ± 0.065

GCGCAGCAAUAUUACGGGCG
self-splicing fitness (ln) (30 °C): -3.71 ± 0.47 | self-splicing fitness (ln) (37 °C): -3.03 ± 0.4

GUACAGCAAUAUUACGGCGA
self-splicing fitness (ln) (30 °C): -1.14 ± 0.18 | self-splicing fitness (ln) (37 °C): -1.09 ± 0.14

ACCGAGCAAUAUUACGCAUA
self-splicing fitness (ln) (30 °C): -2.42 ± 0.21 | self-splicing fitness (ln) (37 °C): -2.57 ± 0.2

CGCAAGCAAUAUUACGGCAU
self-splicing fitness (ln) (30 °C): -1.63 ± 0.071 | self-splicing fitness (ln) (37 °C): -0.555 ± 0.079

UGCGAGCAAUAUUACGCAGG
self-splicing fitness (ln) (30 °C): -4.38 ± 0.46 | self-splicing fitness (ln) (37 °C): -2.18 ± 0.28

UGAGAGCAAUAUUACGUUAA
self-splicing fitness (ln) (37 °C): -2.46 ± 0.3

ACGCAGCAAUAUUACGUUAA
self-splicing fitness (ln) (30 °C): -3.4 ± 0.31 | self-splicing fitness (ln) (37 °C): -2.88 ± 0.24

GCUAAGCAAUAUUACGCGGC
self-splicing fitness (ln) (30 °C): -0.424 ± 0.19 | self-splicing fitness (ln) (37 °C): -2.64 ± 0.5

AGGAAGCAAUAUUACGAACU
self-splicing fitness (ln) (30 °C): -0.35 ± 0.097 | self-splicing fitness (ln) (37 °C): 0.434 ± 0.13

CCGGAGCAAUAUUACGUCGA
self-splicing fitness (ln) (30 °C): -3.12 ± 0.2 | self-splicing fitness (ln) (37 °C): -1.89 ± 0.19

UCGCAGCAAUAUUACGUAUG
self-splicing fitness (ln) (30 °C): -1.83 ± 0.1 | self-splicing fitness (ln) (37 °C): -2.02 ± 0.15

ACCCAGCAAUAUUACGUGUC
self-splicing fitness (ln) (30 °C): -3.36 ± 0.099 | self-splicing fitness (ln) (37 °C): -1.75 ± 0.099

CGACAGCAAUAUUACGCUAG
self-splicing fitness (ln) (30 °C): -3.79 ± 0.25 | self-splicing fitness (ln) (37 °C): -2.04 ± 0.16

AACAAGCAAUAUUACGUCUU
self-splicing fitness (ln) (30 °C): -0.312 ± 0.057 | self-splicing fitness (ln) (37 °C): 0.0818 ± 0.077

UUGUAGCAAUAUUACGUUUG
self-splicing fitness (ln) (30 °C): -1.83 ± 0.15 | self-splicing fitness (ln) (37 °C): -1.87 ± 0.2

GGGGAGCAAUAUUACGCGUC
self-splicing fitness (ln) (30 °C): -3.26 ± 0.43 | self-splicing fitness (ln) (37 °C): -1.47 ± 0.23

UGGCAGCAAUAUUACGAUAU
self-splicing fitness (ln) (30 °C): -2.5 ± 0.16 | self-splicing fitness (ln) (37 °C): -1.37 ± 0.21

GCCAAGCAAUAUUACGAGUA
self-splicing fitness (ln) (30 °C): -3.27 ± 0.13 | self-splicing fitness (ln) (37 °C): -1.61 ± 0.07

GGCUAGCAAUAUUACGUCCA
self-splicing fitness (ln) (30 °C): -1.3 ± 0.18 | self-splicing fitness (ln) (37 °C): -1.05 ± 0.2

CUUAAGCAAUAUUACGGUUU
self-splicing fitness (ln) (30 °C): -4.49 ± 0.3 | self-splicing fitness (ln) (37 °C): -2.88 ± 0.4

AUCAAGCAAUAUUACGCGUU
self-splicing fitness (ln) (30 °C): -2.66 ± 0.089 | self-splicing fitness (ln) (37 °C): -0.858 ± 0.095

GUCUAGCAAUAUUACGUUGU
self-splicing fitness (ln) (30 °C): -0.779 ± 0.055 | self-splicing fitness (ln) (37 °C): -0.582 ± 0.065

GUGCAGCAAUAUUACGUGAU
self-splicing fitness (ln) (30 °C): -1.98 ± 0.078 | self-splicing fitness (ln) (37 °C): -0.862 ± 0.086

GUAUAGCAAUAUUACGGCAA
self-splicing fitness (ln) (30 °C): -0.453 ± 0.39 | self-splicing fitness (ln) (37 °C): -0.521 ± 0.35

ACAAAGCAAUAUUACGUGCU
self-splicing fitness (ln) (30 °C): -0.981 ± 0.069 | self-splicing fitness (ln) (37 °C): -0.486 ± 0.082

ACUAAGCAAUAUUACGAGCA
self-splicing fitness (ln) (30 °C): -1.29 ± 0.086 | self-splicing fitness (ln) (37 °C): -0.197 ± 0.098

From the supplement of paper PMC7877785
